Data as given in US12006368 (SURROZEN OPERATING, dated 2024).

Legend:
[1] = target: T1, Fzd1 cysteine rich domain (CRD), C-terminally biotinylated (human, UniProt Q9UP38 101-230); assay: BLI; **=Kd 100-2000 nM
Method: (§1) Binding kinetics of antibody fragments to a variety of Fzd cysteine rich domain (CRD) protein targets (Fzd1, Fzd2, Fzd3, Fzd4, Fzd5, Fzd6, Fzd7, Fzd8, Fzd9 and/or Fzd10 CRDs) was determined by bio-layer interferometry (BLI) using Octet Red 96 (PALL ForteBio, Fremont, CA) instruments at 30° C., 1000 rpm with streptavidin (SA) biosensors. C-terminal biotinylated Fzd CRD recombinant protein was diluted to 20 nM in the running buffer (PBS, 0.05% Tween-20, 0.5% BSA, pH 7.2) and captured to the SA biosensor until coupling length reached 0.2 nm. Following capture of the Fzd CRD, the SA biosensor with captured biotinylated-Fzd CRD was dipped into wells containing the relevant antibody fragment at […] (0, 1.37, 4.12, 12.4, 37, 111.1, 333.3, 1000 nM) in running buffer, plus a well with only running buffer as a reference channel. […] was determined by global fitting, 1:1 binding model according to manufacturer recommended settings.
(§2) Table 1B provides clone IDs, the sequence identifier number of the antibody heavy chain fragment and/or light chain fragment, if present, for illustrative clones. In certain embodiments, the Fzd binding domain is an Fab or was derived from an Fab, so the heavy chain of Table 1B includes VH and CH1 sequence, but not CH2 or CH3 sequences. In certain embodiments, the Fzd binding domain is a VHH or sdAb® or was derived from a VHH or sdAb, so Table 1B includes the VHH domain. […] The Kd values were determined by BLI as described above. Blank entries denote that the binding to the specific Fzd receptor has not yet been determined. The entry of "n.b." indicates no binding.

[2] = target: Fzd2 cysteine rich domain (CRD), C-terminally biotinylated (human, UniProt Q14332 24-155); assay: BLI; **=Kd 100-2000 nM
Method: as §1, §2

[3] = target: Fzd7 cysteine rich domain (CRD), C-terminally biotinylated (human, UniProt O75084 36-165); assay: BLI; **=Kd 100-2000 nM
Method: as §1, §2

[4] = target: T1, Fzd1 cysteine rich domain (CRD), …; assay: BLI; *=Kd <100 nM
Method: as §1, §2

[5] = target: T1, Fzd1 cysteine rich domain (CRD), …; assay: BLI; *=Kd <=100 nM
Method: as §1
One antibody fragment, clone 001S-A04, was selected for alanine-scanning mutagenesis of CDRs, and the respective Fzd1 binding affinities of the various mutants were determined by Octet BLI as described in Example 1.

B1: 001S-B01 (Fab, V domains shown)
VH: QLQLQESGSGLVKPSQTLSLTCAVSGGSISSGGYSWSWIRQPPGKGLEWIGSIYHSGSTYYNPSLKSRLTISVDTSKNQFSLKLSSVTAADTAVYYCARFYYDILTGYSYFDYWGQGTLVTVSS
VL: DIVMTHTPLSLSVTPGEPASISCRSSRSLLDTDDGNTYLDWYLQKPGQSPQLLIHTLSHRASGVPDRFSGSGSGTDFTLKISRVEAEDVGVYYCMQSIQLPWTFGQGTKVEIKR
Kd [1]: 100 to 2000 nM | Kd [2]: 100 to 2000 nM | Kd [3]: 100 to 2000 nM

B2: 003S-E07 (Fab, V domains shown)
VH: QVQLVQSGAEVKKPGSSVKVSCKASGYTFTNNFMHWVRQAPGQGLEWMGWINPNSGGTKYAQKFQGRVTITADESTSTAYMELSSLRSEDTAVYYCARSVGEVGATMLGIGVWYWFDPWGQGTLVTVSS
VL: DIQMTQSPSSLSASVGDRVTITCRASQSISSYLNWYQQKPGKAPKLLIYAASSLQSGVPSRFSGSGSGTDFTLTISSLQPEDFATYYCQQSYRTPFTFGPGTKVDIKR
notes: also called R2M9
Kd [2]: 100 to 2000 nM

B3: 002S-G02 (VHH)
VHH: AVQLVDSGGGLMQAGGSLRLSCAASGRTFGTWAMGWFRQAPGKEREFVAAISYNGFSTYYSDAVKGRFTISRDNAKNTMYLQMDSLIPEDTAVYYCAAGPIARWYRGDMDYWGKGTQVTVSS
Kd [1]: 100 to 2000 nM

B4: 002S-E02 (VHH)
VHH: QVQLVESGGGLVQPGGSLRLSCAASGFTFREYAMTWVRQSPGKRLEWVSGISRDGGRTSYSDSLKGRFTISRDNAKNTLYLQMNNLTPEDTAVYYCAPRVLVTAPSGGMDYWGKGTQVTVSS
Kd [1]: 100 to 2000 nM

B5: 002S-D04 (VHH)
VHH: QVKLEESGGGLVQAGGSLRLSCAASGGTSSTYAMGWFRQAPGKEREFVAAINRSGGSTYYADSVKGRFTISRDNAKNTVYLQMNSLNPEDTAVYYCAAVFLSRNYEIQEYYRYQGQGTQVTVSS
Kd [1]: 100 to 2000 nM

B6: 001S-B03 (Fab, V domains shown)
VH: QVQLQQWGAGLLKPSETLSLTCAVSGASFSGHYWTWIRQPPGKGLEWIGEIDHTGSTNYEPSLRSRVTISVDTSKNQFSLNLKSVTAADTAVYYCARGGQGGYDWGHYHGLDVWGQGTTVTVSS
VL: SYVLTQPPSVSVSPGQTASITCSGDKVGHKYASWYQQKPGQSPVLVIYEDSQRPSGIPVRFSGSNSGNTATLTISGTQAMDEADYYCQAWDSSTDVVFGGGTKLTVLG
notes: also called 1RC07
Kd [4]: < 100 nM

B7: 001S-A04 mutant VLL1A (Fab, V domains shown)
VH: EVQLVQSGAEVKKPGASVKVSCKASGYTFTSYGISWVRQAPGQGLEWMGWISAYNGNTNYAQKLQGRVTMTTDTSTSTAYMELRSLRSDDTAVYYCASSKEKATYYYGMDVWGQGTTVTVSS
VL: QAVVLQEPSLSVSPGGTVTLTCGLSSGSVSTNYYPSWYQQTPGQAPRTLIYYTNTRSSDVPERFSGSIVGNKAALTITGAQPDDESVYFCALYLGRGIWVFGGGTKLTVLG
KD [5]: ≤ 100 nM

B8: 001S-A04 mutant VLV10A (Fab, V domains shown)
VH: EVQLVQSGAEVKKPGASVKVSCKASGYTFTSYGISWVRQAPGQGLEWMGWISAYNGNTNYAQKLQGRVTMTTDTSTSTAYMELRSLRSDDTAVYYCASSKEKATYYYGMDVWGQGTTVTVSS
VL: QAVVLQEPSLSVSPGGTVTLTCGLSSGSVSTNYYPSWYQQTPGQAPRTLIYYTNTRSSDVPERFSGSIVGNKAALTITGAQPDDESVYFCLLYLGRGIWAFGGGTKLTVLG
KD [5]: ≤ 100 nM

B9: 001S-A04 mutant VLL2A (Fab, V domains shown)
VH: EVQLVQSGAEVKKPGASVKVSCKASGYTFTSYGISWVRQAPGQGLEWMGWISAYNGNTNYAQKLQGRVTMTTDTSTSTAYMELRSLRSDDTAVYYCASSKEKATYYYGMDVWGQGTTVTVSS
VL: QAVVLQEPSLSVSPGGTVTLTCGLSSGSVSTNYYPSWYQQTPGQAPRTLIYYTNTRSSDVPERFSGSIVGNKAALTITGAQPDDESVYFCLAYLGRGIWVFGGGTKLTVLG
KD [5]: ≤ 100 nM

B10: 001S-A04 mutant VLY3A (Fab, V domains shown)
VH: EVQLVQSGAEVKKPGASVKVSCKASGYTFTSYGISWVRQAPGQGLEWMGWISAYNGNTNYAQKLQGRVTMTTDTSTSTAYMELRSLRSDDTAVYYCASSKEKATYYYGMDVWGQGTTVTVSS
VL: QAVVLQEPSLSVSPGGTVTLTCGLSSGSVSTNYYPSWYQQTPGQAPRTLIYYTNTRSSDVPERFSGSIVGNKAALTITGAQPDDESVYFCLLALGRGIWVFGGGTKLTVLG
KD [5]: ≤ 100 nM

B11: 001S-A04 mutant VLL4A (Fab, V domains shown)
VH: EVQLVQSGAEVKKPGASVKVSCKASGYTFTSYGISWVRQAPGQGLEWMGWISAYNGNTNYAQKLQGRVTMTTDTSTSTAYMELRSLRSDDTAVYYCASSKEKATYYYGMDVWGQGTTVTVSS
VL: QAVVLQEPSLSVSPGGTVTLTCGLSSGSVSTNYYPSWYQQTPGQAPRTLIYYTNTRSSDVPERFSGSIVGNKAALTITGAQPDDESVYFCLLYAGRGIWVFGGGTKLTVLG
KD [5]: ≤ 100 nM

B12: 001S-A04 mutant VLR6A (Fab, V domains shown)
VH: EVQLVQSGAEVKKPGASVKVSCKASGYTFTSYGISWVRQAPGQGLEWMGWISAYNGNTNYAQKLQGRVTMTTDTSTSTAYMELRSLRSDDTAVYYCASSKEKATYYYGMDVWGQGTTVTVSS
VL: QAVVLQEPSLSVSPGGTVTLTCGLSSGSVSTNYYPSWYQQTPGQAPRTLIYYTNTRSSDVPERFSGSIVGNKAALTITGAQPDDESVYFCLLYLGAGIWVFGGGTKLTVLG
KD [5]: ≤ 100 nM

B13: 002S-F03 (VHH)
VHH: AVQLVESGGGLVQAGGPLRLSCAASGRTSSSYAMGWFRQAPGKEREFVAAISWSGGSTYYADSVKGRFTISRDNAKNTVYLQMDSPIPEDTAVYYCAAGPIARWYRGDMDYWGKGTLVTVSS
Kd [1]: 100 to 2000 nM

B14: 002S-A04 (VHH)
VHH: AVQLVESGGGLVQAGGSLRLSCTASGRTFSSYAMGWFRQAPGKEREFVAAISWSGRSTYYADSVKGRFTISRDNAKNTVYLQMNSLKSEDTAAYYCAAGPIARWYRGDMDYWGKGTLVTVSS
Kd [4]: < 100 nM

B15: 002S-C02 (VHH)
VHH: DVQLVESGGGLVQTGGSLRLSCVASGRTFRAYAMGWFRQAPGKEREFVSAISWSGGSTYYAGSVKGRFTISRDSAKNTVHLQMDSLIPEDTAVYYCAAGPIARWYRGDMDYWGKGTLVTVSS
Kd [4]: < 100 nM

B16: 002S-B04 (VHH)
VHH: DVQLVESGGGLVQAGGSLRLSCAASGRTFSSYAMGWFRQAPGKEREFVAAISWSGGSTYYADSVKGRFTISRDNAKNTVYLQMNSLKPEDTAVYYCAAGPNYSWFMPSSSRLIWGQGTLVTVSS
Kd [1]: 100 to 2000 nM

B17: 005S-H05 (Fab, V domains shown)
VH: QVQLVQSGAEVKKPGASVKVSCKASGYTFTSYYMHWVRQAPGQGLEWMGRINPNSGGTNYAQKFQGRVTMTRDTSTSTVYMELSSLRSEDTAVYYCARVPDFWSGYLDYWGQGTLVTVSS
VL: DIQMTQSPSSLSASVGDRVTITCRASQGISSALAWYQQKPGKAPKLLIYAASSLQSGVPSRFSGSGSGTDFTLTISSLQPEDFATYYCQQTYSMPITFGQGTRLEIKR
Kd [2]: 100 to 2000 nM

B18: 002S-B01 (VHH)
VHH: EVQLVESGGGLVQAGGSLRLSCTASGSTFSNYAMGWFRQAPGKEREFVAAISWGGGSTFYSGSVKGRFTISRDSAKNTVHLQMDSLIPEDTAVYYCAAGPIARWYRGDMDYWGKGTLVTVSS
Kd [4]: < 100 nM

B19: 001S-G02 (Fab, V domains shown)
VH: QVQLQESGPGLVKPSETLSLTCTVSGGAISGTSYFWGWIRQPPGKGLEWIGSIYYTGNTYYNPSLKSRLTVSVDTSKNQFSLNLNSVTAADTATYYCARIGIAVAAPVDHWGQGTLVTVSS
VL: EIVLTQSPATLSLSPGEGATLSCRASQSVGTYLTWYRQKPGQAPRLLIYDASNRATGIPARFSGSGAGTDFTLKISRVEAEDVGVYYCMQATQFPLTFGQGTKVEIKR
Kd [1]: 100 to 2000 nM | Kd [2]: 100 to 2000 nM | Kd [3]: 100 to 2000 nM
